Measured values from patent US20250136696A1 (HARBOUR BIOMED SHANGHAI, published 2025).

Assays:
Assay in all cases: ELISA on coated B7 family protein
[1] = target: T1, Human B7-1/CD80 protein, Fc tag (Acro, B71-H5259) (human, UniProt P33681 35-242)
T1 construct: Bought
T1 sequence (looked up): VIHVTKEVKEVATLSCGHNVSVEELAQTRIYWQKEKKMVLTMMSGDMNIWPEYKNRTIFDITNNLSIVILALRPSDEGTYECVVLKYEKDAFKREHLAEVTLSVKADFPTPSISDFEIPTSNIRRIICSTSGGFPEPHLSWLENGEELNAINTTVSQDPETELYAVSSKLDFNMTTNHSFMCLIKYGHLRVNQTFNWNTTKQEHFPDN
Procedure: (§1) B7 family proteins (see Table 7 for details) were respectively diluted to […] with PBS, added into a 96-well plate (Corning, #9018) at 100 μl/well, and incubated at 4° C. overnight. After the liquid was discarded, the plate was washed 3 times with a PBST buffer (pH 7.4, containing 0.05% tween-20), 250 μl of blocking solution containing 2% BSA was added, and the plate was incubated for 1 hour at 37° C. The blocking solution was discarded, the plate was washed 3 times with PBST buffer (pH 7.4, containing 0.05% Tween-20), the antigen-binding protein to be tested was diluted to 2 concentrations of 10 nM and 1 nM, 100 μl of the diluted antigen-binding protein was added to each well, and the plate was incubated for 1 hour at 37° C., with the isotype antibody as the control. After the plate was washed 3 times with PBST buffer (pH 7.4, containing 0.05% Tween-20), goat anti-human HRP secondary antibody (Invitrogen, #A18805) diluted 5000 times was added, and the plate was incubated at 37° C. for 1 hour in the dark. After the plate was washed 3 times with PBST buffer (pH 7.4, containing 0.05% tween-20), TMB (Biopanda, #TMB-S-003) was added at 100 μl/well, and the plate was placed at room temperature for about 30 minutes in the dark; and a stop solution (BBI life sciences, #E661006-0200) was added to each well at 50 μl/well to stop the reaction, and the absorbance at 450 nm (OD450) was determined in a microplate reader (PerkinElemer, #Enspire).

[2] = target: T2, Human B7-2/CD86 protein, Fc tag (Acro, CD6-H5257) (human, UniProt P42081 26-247)
T2 construct: Bought
T2 sequence (looked up): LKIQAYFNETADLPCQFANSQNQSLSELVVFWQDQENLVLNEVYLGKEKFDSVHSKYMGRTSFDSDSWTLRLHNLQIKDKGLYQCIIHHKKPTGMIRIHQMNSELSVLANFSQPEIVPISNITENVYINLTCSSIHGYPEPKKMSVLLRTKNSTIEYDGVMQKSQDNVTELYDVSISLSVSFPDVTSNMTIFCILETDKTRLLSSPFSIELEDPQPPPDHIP
Procedure: as §1

[3] = target: T3, Human B7-DC/PD-L2/CD273 protein, recombinant (Fc tag) (Sino Biological, H10292-H02H) (human, UniProt Q9BQ51 20-219)
T3 construct: Bought
T3 sequence (looked up): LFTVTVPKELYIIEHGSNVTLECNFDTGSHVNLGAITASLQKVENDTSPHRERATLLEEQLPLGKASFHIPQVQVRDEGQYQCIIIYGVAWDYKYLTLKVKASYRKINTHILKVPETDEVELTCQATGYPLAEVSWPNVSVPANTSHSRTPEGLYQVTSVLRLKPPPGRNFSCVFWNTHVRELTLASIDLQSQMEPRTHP
Procedure: as §1

[4] = target: T4, Human PD-L1/B7-H1 protein, His tag (Acro, PD1-H5229) (human, UniProt Q9NZQ7 19-238)
T4 construct: Bought
Procedure: as §1

[5] = target: T5, B7-H3/CD276 protein, human, recombinant (ECD, Fc tag) (Sino Biological, 11188-H02H) (human, UniProt Q5ZPR3 29-466)
T5 construct: extracellular domain; Bought
T5 sequence (looked up): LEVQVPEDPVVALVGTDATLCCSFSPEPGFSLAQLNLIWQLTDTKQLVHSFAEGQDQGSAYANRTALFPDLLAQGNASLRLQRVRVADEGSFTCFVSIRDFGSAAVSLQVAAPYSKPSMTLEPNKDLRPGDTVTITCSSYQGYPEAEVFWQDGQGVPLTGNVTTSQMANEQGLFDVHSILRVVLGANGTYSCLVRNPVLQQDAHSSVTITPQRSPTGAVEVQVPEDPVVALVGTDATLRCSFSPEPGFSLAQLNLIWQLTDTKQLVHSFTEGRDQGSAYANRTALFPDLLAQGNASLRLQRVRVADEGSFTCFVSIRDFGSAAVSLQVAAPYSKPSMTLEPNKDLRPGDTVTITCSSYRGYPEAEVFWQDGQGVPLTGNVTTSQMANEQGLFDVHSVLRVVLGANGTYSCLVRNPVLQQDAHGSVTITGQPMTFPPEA
Procedure: as §1

[6] = target: T6, Recombinant human B7H4 Fc chimera (R&D, 8870-B7-050) (human, UniProt Q7Z7D3 29-258)
T6 construct: Bought
T6 sequence (looked up): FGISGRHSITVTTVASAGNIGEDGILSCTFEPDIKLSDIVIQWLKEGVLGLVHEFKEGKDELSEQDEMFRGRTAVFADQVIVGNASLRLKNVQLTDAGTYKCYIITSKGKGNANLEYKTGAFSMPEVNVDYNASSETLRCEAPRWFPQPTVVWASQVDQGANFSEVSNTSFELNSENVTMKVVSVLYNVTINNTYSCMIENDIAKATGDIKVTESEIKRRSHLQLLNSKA
Procedure: as §1

[7] = target: T7, Recombinant human VISTA/B7H5/PD-1H Fc chimera (R&D, 7126-B7-050) (human, UniProt Q9H7M9 33-194)
T7 construct: Bought
Procedure: as §1

[8] = target: T8, B7-H6 /NCR3LG1 protein, human, recombinant (Fc tag) (Sino Biological, 16140-H02H) (human, UniProt Q68D85 25-262)
T8 construct: Bought
T8 sequence (looked up): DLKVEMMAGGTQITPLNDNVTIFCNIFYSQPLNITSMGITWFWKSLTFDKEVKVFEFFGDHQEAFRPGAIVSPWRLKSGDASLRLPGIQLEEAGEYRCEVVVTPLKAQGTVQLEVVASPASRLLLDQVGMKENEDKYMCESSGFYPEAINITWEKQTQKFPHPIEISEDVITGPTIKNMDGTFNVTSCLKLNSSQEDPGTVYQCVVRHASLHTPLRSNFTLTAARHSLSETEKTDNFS
Procedure: as §1

Measured: binding result

T4 sequence (Q9NZQ7 19-238 limits assumed): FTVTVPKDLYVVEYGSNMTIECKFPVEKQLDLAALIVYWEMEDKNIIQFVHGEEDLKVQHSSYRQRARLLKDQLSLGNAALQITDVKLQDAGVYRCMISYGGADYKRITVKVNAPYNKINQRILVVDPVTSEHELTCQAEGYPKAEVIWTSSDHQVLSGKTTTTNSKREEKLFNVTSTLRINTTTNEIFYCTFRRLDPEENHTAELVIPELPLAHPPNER

B1: PR004263 (antibody, human IgG1, kappa, L234A L235A)
heavy: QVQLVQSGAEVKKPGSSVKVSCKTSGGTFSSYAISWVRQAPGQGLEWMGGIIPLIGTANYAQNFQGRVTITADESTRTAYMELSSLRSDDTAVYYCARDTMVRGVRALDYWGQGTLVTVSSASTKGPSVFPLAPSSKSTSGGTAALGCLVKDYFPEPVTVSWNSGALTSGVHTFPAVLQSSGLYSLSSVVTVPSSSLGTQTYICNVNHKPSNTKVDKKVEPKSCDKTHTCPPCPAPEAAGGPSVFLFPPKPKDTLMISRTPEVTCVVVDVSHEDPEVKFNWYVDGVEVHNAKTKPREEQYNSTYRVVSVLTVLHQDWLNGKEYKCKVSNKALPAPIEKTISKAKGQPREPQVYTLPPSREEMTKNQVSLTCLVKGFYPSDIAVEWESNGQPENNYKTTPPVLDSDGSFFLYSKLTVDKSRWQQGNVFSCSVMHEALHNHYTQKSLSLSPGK
light: DIQLTQSPSFLSASVGDRVTITCRASQGISSYFAWYQQKPGKAPKLLIYAASTLQSGVPSRFSGSGSGTEFTLTISSLQPEDFATYYCQHLNRYPWTFGQGTKVEIKRTVAAPSVFIFPPSDEQLKSGTASVVCLLNNFYPREAKVQWKVDNALQSGNSQESVTEQDSKDSTYSLSSTLTLSKADYEKHKVYACEVTHQGLSSPVTKSFNRGEC
notes: Variant of PR003264; Human IgG1 with LALA mutation in Fc
no binding (tested: 10 nM): all assays above

B2: PR004260 (antibody, human IgG1, kappa, L234A L235A)
heavy: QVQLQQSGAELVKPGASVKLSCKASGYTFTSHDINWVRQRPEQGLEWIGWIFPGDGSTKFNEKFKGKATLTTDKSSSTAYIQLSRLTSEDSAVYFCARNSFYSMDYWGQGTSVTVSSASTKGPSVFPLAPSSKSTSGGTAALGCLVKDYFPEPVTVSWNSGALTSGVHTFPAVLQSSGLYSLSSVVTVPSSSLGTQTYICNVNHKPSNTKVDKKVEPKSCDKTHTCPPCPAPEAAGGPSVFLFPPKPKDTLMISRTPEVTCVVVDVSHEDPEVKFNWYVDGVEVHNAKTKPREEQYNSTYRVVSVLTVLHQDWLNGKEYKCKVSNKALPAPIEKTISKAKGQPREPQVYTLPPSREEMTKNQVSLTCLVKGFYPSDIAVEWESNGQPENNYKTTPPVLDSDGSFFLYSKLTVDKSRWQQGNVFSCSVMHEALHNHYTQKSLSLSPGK
light: DIVMSQSPSSLAVSAGEKVTMSCKSSQSLLNSRTRKNQLAWYQQKPGQSPKLLIYWASTRESGVPDRFTGSGSGTDFTLTISSVQAEDLAVYYCKQSYNLRTFGGGTKLEIKRTVAAPSVFIFPPSDEQLKSGTASVVCLLNNFYPREAKVQWKVDNALQSGNSQESVTEQDSKDSTYSLSSTLTLSKADYEKHKVYACEVTHQGLSSPVTKSFNRGEC
notes: Variant of PR003181; Human IgG1 with LALA mutation in Fc
no binding (tested: 10 nM): all assays above
